In US20240301052A1 (LANOVA MEDICINES DEVELOPMENT, published 2024):
Where a chain is given by its changes, count along the chain named. Where two headings read alike, the source gives them in different places.

T1: human SLC34A2 (human, UniProt O95436 1-690)
T1 construct: whole, on cells; also called human solute carrier 34 A2; NaPi2b
T1 sequence (looked up): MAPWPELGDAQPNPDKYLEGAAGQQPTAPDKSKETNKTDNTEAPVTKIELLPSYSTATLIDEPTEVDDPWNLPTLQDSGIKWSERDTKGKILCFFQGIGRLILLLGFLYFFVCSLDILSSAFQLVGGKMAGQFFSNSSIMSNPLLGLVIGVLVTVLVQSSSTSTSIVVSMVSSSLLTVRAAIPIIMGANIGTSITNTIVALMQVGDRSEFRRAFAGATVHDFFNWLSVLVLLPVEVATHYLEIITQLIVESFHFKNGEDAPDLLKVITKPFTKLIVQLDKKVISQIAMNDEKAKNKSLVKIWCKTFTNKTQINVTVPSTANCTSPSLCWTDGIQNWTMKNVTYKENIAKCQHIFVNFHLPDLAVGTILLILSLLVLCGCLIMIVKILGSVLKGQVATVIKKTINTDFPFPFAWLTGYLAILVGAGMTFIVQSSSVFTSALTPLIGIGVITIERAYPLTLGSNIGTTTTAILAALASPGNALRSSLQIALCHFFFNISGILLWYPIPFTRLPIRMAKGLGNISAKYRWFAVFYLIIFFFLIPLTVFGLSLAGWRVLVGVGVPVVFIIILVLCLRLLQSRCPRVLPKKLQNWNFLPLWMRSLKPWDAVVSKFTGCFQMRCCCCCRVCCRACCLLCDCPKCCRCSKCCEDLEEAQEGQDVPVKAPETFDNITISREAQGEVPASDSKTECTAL

T2: Rhesus SLC34A2 (Rhesus, UniProt F7HDA3 1-690)
T2 construct: whole, on cells
T2 sequence: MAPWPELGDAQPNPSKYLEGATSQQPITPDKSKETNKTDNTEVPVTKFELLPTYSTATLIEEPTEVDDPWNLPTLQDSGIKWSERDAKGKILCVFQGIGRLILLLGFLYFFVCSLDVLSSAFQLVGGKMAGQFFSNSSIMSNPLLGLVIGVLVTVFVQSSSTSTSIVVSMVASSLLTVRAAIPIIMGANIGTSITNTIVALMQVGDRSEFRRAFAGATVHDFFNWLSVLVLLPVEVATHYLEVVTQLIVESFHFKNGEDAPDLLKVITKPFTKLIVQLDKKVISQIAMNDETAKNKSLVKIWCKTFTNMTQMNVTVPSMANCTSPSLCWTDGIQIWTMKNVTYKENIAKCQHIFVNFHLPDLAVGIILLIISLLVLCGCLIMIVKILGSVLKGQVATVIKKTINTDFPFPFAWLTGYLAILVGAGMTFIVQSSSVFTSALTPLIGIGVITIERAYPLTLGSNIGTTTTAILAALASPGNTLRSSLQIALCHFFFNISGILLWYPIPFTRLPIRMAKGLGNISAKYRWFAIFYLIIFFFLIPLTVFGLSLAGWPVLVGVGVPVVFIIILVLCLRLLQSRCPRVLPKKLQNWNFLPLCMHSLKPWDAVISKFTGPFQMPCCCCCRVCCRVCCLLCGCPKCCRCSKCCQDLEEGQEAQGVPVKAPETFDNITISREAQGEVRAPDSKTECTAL

B1: 30H9B8F9.p1.z13 hIgG1 (antibody, V domains shown)
VH: QVQLVQSGAEVVKPGASVKMSCKTSGYTFTTNNMHWVKQAPGQGLEWIGAIYPGSGATAYNQKFKGRATLTADKSTSTAYMELSSLRSEATAVYYCARGMYGHGAMDYWGQGTSVTVSS
VL: DIQLTQSPSFLSASVGDRVTITCKASQDVGTAVAWYQQKPGKAPKLLIYWATTRHSGVPSRFSGSGSGTEFTLTISSLQPEDFATYYCQQYSSNPLTFGQGTKLEIK
notes: humanized hIgG1
B2: 30H9B8F9.p1.z6 hIgG1 (antibody, V domains shown)
VH: B1 VH with V12K, M20V, K38R, A68V, L70M, K74T, A79V, A90D, S114L
VL: B1 VL with A43S, S60D, L73F, Y87F
notes: humanized hIgG1
B3: 30H9B8F9.p1.z9 hIgG1 (antibody, V domains shown)
VH: B1 VH with M20V, K38R, A68V, S114L
VL: B1 VL
notes: humanized hIgG1
B4: 63A11D5B4.p1.z5 hIgG1 (antibody, V domains shown)
VH: QVQLVQSGAEVKKPGASVKVSCKTSGYTFITYNMHWVRQAPGQGLEWIGAIYPGSGDTSYNQKFKGRVTMTADTSTSTVYMELSSLRSEDTAVYYCSISTIITTGAVDYWGQGTLVTVSS
VL: DIQMTQSPSSLSASVGDRVTITCKASQDVGTAVAWYQQKPGKVPKLLIYWTSTRHTGVPSRFSGSGSGTDFTLTISSLQPEDVATYYCQQYSRIPLTFGGGTKVEIK
notes: humanized hIgG1
B5: 91C9F1.p1.z14 hIgG1 (antibody, V domains shown)
VH: QVQLVQSGAEVVKPGSSVKISCKTSGFFFTEYIIHWVKQSPGQGLEWIGGIIPNNDVTNYKQNFRGRATLTADKSTNTAYMELRSSLRSEDTAVYYCARWRNAYYSAMDSWGQGTTVTVSS
VL: B4 VL with A13T, K24T, V43S, T51A, S60E, Y87F, S92R, R93T, I94S
notes: humanized hIgG1
B6: 91C9F1.p1.z6 hIgG1 (antibody, V domains shown)
VH: QVQLVQSGAEVKKPGSSVKVSCKTSGFFFTEYIIHWVRQAPGQGLEWIGGIIPNNDVTNYKQNFRGRVTLTADKSTSTAYMELSSLRSEDTAVYYCARWRNAYYSAMDSWGQGTTVTVSS
VL: B4 VL with A13T, K24T, V43S, T51A, S60E, Y87F, S92R, R93T, I94S
notes: humanized hIgG1
B7: 91C9F1.p1.z8 hIgG1 (antibody, V domains shown)
VH: B6 VH
VL: DIVVTQSPSSLSTSVGDRVTITCTASQDVGTAVAWYQQKPGKSPKLLIYWASTRHTGVPERFTGSGSGTDFTLTISSVQPEDVATYFCQQYRTSPLTFGVGTKLELK
notes: humanized hIgG1
B8: 63A11D5B4.p1.z15 hIgG1 (antibody, V domains shown)
VH: B4 VH with V5Q, K12V, V20M, R38K, L45R, V68A, M70L, T74K, V79A, L115S
VL: B4 VL with A13T, K42Q, V43S, S60D, T74I, S76R, Y87F
notes: humanized hIgG1
B9: 91C9F1.p1.z9 hIgG1 (antibody, V domains shown)
VH: B6 VH with K12V, A40S, V68A
VL: B4 VL with K24T, T51A, S92R, R93T, I94S
notes: humanized hIgG1
B10: 91C9F1.p1.z11 hIgG1 (antibody, V domains shown)
VH: B6 VH with K12V, A40S, V68A
VL: B7 VL with V3Q, L104V, L106I
notes: humanized hIgG1
B11: 91C9F1.p1.z12 hIgG1 (antibody, V domains shown)
VH: B6 VH with K12V, A40S, V68A
VL: B7 VL
notes: humanized hIgG1
B12: 91C9F1.p1.z3 hIgG1 (antibody, V domains shown)
VH: B6 VH with T24A, I48M, L70I, K74E
VL: B7 VL with V3Q, L104V, L106I
notes: humanized hIgG1
B13: 91C9F1.p1.z5 hIgG1 (antibody, V domains shown)
VH: B6 VH
VL: B4 VL with K24T, T51A, S92R, R93T, I94S
notes: humanized hIgG1

What was measured:
human SLC34A2 [1] = molecular target: T1, human SLC34A2; experiment: FACS, RMG-1 cells
Protocol: (§1) In another testing, cell based binding of hu Abs on human SLC34A2 expressing cells were assessed using flow cytometry. Briefly, the HEK293/H_SLC34A2, OVCAR3 and RMG-1 cells were incubated with hu Abs. After incubation at 4° C. for 60 minutes, the cells were washed with FACS buffer twice, then stained with fluorescent conjugated secondary antibody at 4° C. for 30 minutes. After that the cells were washed twice and analyzed by flow cytometry.

human SLC34A2 [2] = molecular target: T1, human SLC34A2; experiment: FACS, OVCAR3 cells
Protocol: The binding of these humanized antibodies to OVCAR3 cells was evaluated as described above, and the results are shown in FIG. 12A-D and Tables 16A-D.

human SLC34A2 [3] = molecular target: T1, human SLC34A2; experiment: FACS, OVCAR3 cells; remark: listed apart in the source
Protocol: as §1

human SLC34A2 [4] = molecular target: T1, human SLC34A2; experiment: cell-based or functional assay
human SLC34A2 [5] = molecular target: T1, human SLC34A2; experiment: FACS, HEK293/human SLC34A2 cells
Protocol: as §1

Rhesus SLC34A2 = molecular target: T2, Rhesus SLC34A2; experiment: FACS, HEK293/Rhesus SLC34A2 cells
human SLC34A2 [6] = molecular target: T1, human SLC34A2; experiment: FACS, OVCAR3 cells; remark: listed apart in the source
human SLC34A2 [7] = molecular target: T1, human SLC34A2; experiment: FACS, OVCAR3 cells; remark: listed apart in the source

Binder	EC50 (human SLC34A2 [1])	Top (human SLC34A2 [1])	EC50 (human SLC34A2 [2])	Top (MFI) (human SLC34A2 [2])	EC50 (human SLC34A2 [3])	ADCC reporter EC50 (human SLC34A2 [4])	ADCC reporter Top (MFI) (human SLC34A2 [4])	EC50 (human SLC34A2 [5])	Top (human SLC34A2 [5])	EC50 (Rhesus SLC34A2)	Top (MFI) (Rhesus SLC34A2)	EC50 (human SLC34A2 [6])	Top (MFI) (human SLC34A2 [6])	EC50 (human SLC34A2 [7])	Top (MFI) (human SLC34A2 [7])	Top (human SLC34A2 [3])
B1	0.73 nM	10900 MFI	1.03 nM	28400 MFI	0.62 nM	0.96 nM	143000 MFI	1.05 nM	33000 MFI	0.8 nM	15600 MFI					
B2	1.78 nM	10400 MFI	1.62 nM	28400 MFI	1.1 nM	1.25 nM	135000 MFI	1.94 nM	33600 MFI	1.1 nM	15100 MFI					
B3	1.4 nM	11600 MFI	1.59 nM	29400 MFI	1.08 nM	1.53 nM	145000 MFI	1.81 nM	34200 MFI	0.9 nM	16300 MFI					
B4	36.2 nM	11800 MFI			13.5 nM	0.95 nM	116000 MFI	4.8 nM	35900 MFI	3.9 nM	11100 MFI	13.5 nM	28200 MFI			
B5														3.87 nM	36200 MFI	
B6	3.03 nM	9560 MFI			2.86 nM	1.77 nM	125000 MFI	1.72 nM	36100 MFI	8.8 nM	8160 MFI			1.72 nM	36100 MFI	20300 MFI
B7														2.13 nM	35700 MFI	
B8	40.6 nM	13200 MFI			9.23 nM	1.47 nM	122000 MFI	7.12 nM	37000 MFI	4.7 nM	10300 MFI	9.23 nM	30200 MFI			
B9														2.72 nM	37000 MFI	
B10														1.41 nM	31000 MFI	
B11														1.77 nM	34500 MFI	
B12														4.04 nM	35500 MFI	
B13														2.95 nM	36900 MFI	
